Results: patent publication US12679878B2, “CRF2 receptor agonists and their use in therapy” (SANOFI, priority 2020, dated 2026)
Starred links: 1 amine or outer side, 2 acyl side, 3 side chain; linkers in the order of their positions; H or OH if unused. Non-standard residues stand in square brackets, D forms with d. Groups on a side chain read outwards from the residue. No end group written: not given here. *: point of attachment. C18 diacid = O=C(O)CCCCCCCCCCCCCCCCC(=O)*; γGlu = O=C(O)[C@H](CCC(=O)[*:2])N[*:1]; Palmitoyl = CCCCCCCCCCCCCCCC(=O)*; AEEA = NCCOCCOCC(=O)O; Aib = CC(C)(N)C(=O)O

B1: SEQ ID NO: 6 (peptide)
peptide: IVLSLDVPIGLK([γGlu-Palmitoyl])QKLLKQQRQRKERQQAEKNARILARV-NH2
modifications: N-terminus assumed
SMILES: CCCCCCCCCCCCCCCC(=O)N[C@@H](CCC(=O)NCCCC[C@H](NC(=O)[C@H](CC(C)C)NC(=O)CNC(=O)[C@@H](NC(=O)[C@@H]1CCCN1C(=O)[C@@H](NC(=O)[C@H](CC(=O)O)NC(=O)[C@H](CC(C)C)NC(=O)[C@H](CO)NC(=O)[C@H](CC(C)C)NC(=O)[C@@H](NC(=O)[C@@H](N)[C@@H](C)CC)C(C)C)C(C)C)[C@@H](C)CC)C(=O)N[C@@H](CCC(N)=O)C(=O)N[C@@H](CCCCN)C(=O)N[C@@H](CC(C)C)C(=O)N[C@@H](CC(C)C)C(=O)N[C@@H](CCCCN)C(=O)N[C@@H](CCC(N)=O)C(=O)N[C@@H](CCC(N)=O)C(=O)N[C@@H](CCCNC(=N)N)C(=O)N[C@@H](CCC(N)=O)C(=O)N[C@@H](CCCNC(=N)N)C(=O)N[C@@H](CCCCN)C(=O)N[C@@H](CCC(=O)O)C(=O)N[C@@H](CCCNC(=N)N)C(=O)N[C@@H](CCC(N)=O)C(=O)N[C@@H](CCC(N)=O)C(=O)N[C@@H](C)C(=O)N[C@@H](CCC(=O)O)C(=O)N[C@@H](CCCCN)C(=O)N[C@@H](CC(N)=O)C(=O)N[C@@H](C)C(=O)N[C@@H](CCCNC(=N)N)C(=O)N[C@H](C(=O)N[C@@H](CC(C)C)C(=O)N[C@@H](C)C(=O)N[C@@H](CCCNC(=N)N)C(=O)N[C@H](C(N)=O)C(C)C)[C@@H](C)CC)C(=O)O
B2: SEQ ID NO: 85 (peptide)
peptide: IVLSLDVPIKLK([AEEA-AEEA-γGlu-C18 diacid])QILLKQERQKKQREQAETNKQILAQV-NH2
modifications: N-terminus assumed
SMILES: CC[C@H](C)[C@H](N)C(=O)N[C@H](C(=O)N[C@@H](CC(C)C)C(=O)N[C@@H](CO)C(=O)N[C@@H](CC(C)C)C(=O)N[C@@H](CC(=O)O)C(=O)N[C@H](C(=O)N1CCC[C@H]1C(=O)N[C@H](C(=O)N[C@@H](CCCCN)C(=O)N[C@@H](CC(C)C)C(=O)N[C@@H](CCCCNC(=O)COCCOCCNC(=O)COCCOCCNC(=O)CC[C@H](NC(=O)CCCCCCCCCCCCCCCCC(=O)O)C(=O)O)C(=O)N[C@@H](CCC(N)=O)C(=O)N[C@H](C(=O)N[C@@H](CC(C)C)C(=O)N[C@@H](CC(C)C)C(=O)N[C@@H](CCCCN)C(=O)N[C@@H](CCC(N)=O)C(=O)N[C@@H](CCC(=O)O)C(=O)N[C@@H](CCCNC(=N)N)C(=O)N[C@@H](CCC(N)=O)C(=O)N[C@@H](CCCCN)C(=O)N[C@@H](CCCCN)C(=O)N[C@@H](CCC(N)=O)C(=O)N[C@@H](CCCNC(=N)N)C(=O)N[C@@H](CCC(=O)O)C(=O)N[C@@H](CCC(N)=O)C(=O)N[C@@H](C)C(=O)N[C@@H](CCC(=O)O)C(=O)N[C@H](C(=O)N[C@@H](CC(N)=O)C(=O)N[C@@H](CCCCN)C(=O)N[C@@H](CCC(N)=O)C(=O)N[C@H](C(=O)N[C@@H](CC(C)C)C(=O)N[C@@H](C)C(=O)N[C@@H](CCC(N)=O)C(=O)N[C@H](C(N)=O)C(C)C)[C@@H](C)CC)[C@@H](C)O)[C@@H](C)CC)[C@@H](C)CC)C(C)C)C(C)C
B3: SEQ ID NO: 86 (peptide)
peptide: IVLSLDVPIKLK([AEEA-AEEA-γGlu-C18 diacid])QILLKQERQKKQREQAKTNKQILAQV-NH2
modifications: N-terminus assumed
SMILES: CC[C@H](C)[C@H](N)C(=O)N[C@H](C(=O)N[C@@H](CC(C)C)C(=O)N[C@@H](CO)C(=O)N[C@@H](CC(C)C)C(=O)N[C@@H](CC(=O)O)C(=O)N[C@H](C(=O)N1CCC[C@H]1C(=O)N[C@H](C(=O)N[C@@H](CCCCN)C(=O)N[C@@H](CC(C)C)C(=O)N[C@@H](CCCCNC(=O)COCCOCCNC(=O)COCCOCCNC(=O)CC[C@H](NC(=O)CCCCCCCCCCCCCCCCC(=O)O)C(=O)O)C(=O)N[C@@H](CCC(N)=O)C(=O)N[C@H](C(=O)N[C@@H](CC(C)C)C(=O)N[C@@H](CC(C)C)C(=O)N[C@@H](CCCCN)C(=O)N[C@@H](CCC(N)=O)C(=O)N[C@@H](CCC(=O)O)C(=O)N[C@@H](CCCNC(=N)N)C(=O)N[C@@H](CCC(N)=O)C(=O)N[C@@H](CCCCN)C(=O)N[C@@H](CCCCN)C(=O)N[C@@H](CCC(N)=O)C(=O)N[C@@H](CCCNC(=N)N)C(=O)N[C@@H](CCC(=O)O)C(=O)N[C@@H](CCC(N)=O)C(=O)N[C@@H](C)C(=O)N[C@@H](CCCCN)C(=O)N[C@H](C(=O)N[C@@H](CC(N)=O)C(=O)N[C@@H](CCCCN)C(=O)N[C@@H](CCC(N)=O)C(=O)N[C@H](C(=O)N[C@@H](CC(C)C)C(=O)N[C@@H](C)C(=O)N[C@@H](CCC(N)=O)C(=O)N[C@H](C(N)=O)C(C)C)[C@@H](C)CC)[C@@H](C)O)[C@@H](C)CC)[C@@H](C)CC)C(C)C)C(C)C
B4: SEQ ID NO: 87 (peptide)
peptide: IVLSLDVPIKLK([AEEA-AEEA-γGlu-C18 diacid])QILLKQERQKKQREKAKTNKQILAQV-NH2
modifications: N-terminus assumed
SMILES: CC[C@H](C)[C@H](N)C(=O)N[C@H](C(=O)N[C@@H](CC(C)C)C(=O)N[C@@H](CO)C(=O)N[C@@H](CC(C)C)C(=O)N[C@@H](CC(=O)O)C(=O)N[C@H](C(=O)N1CCC[C@H]1C(=O)N[C@H](C(=O)N[C@@H](CCCCN)C(=O)N[C@@H](CC(C)C)C(=O)N[C@@H](CCCCNC(=O)COCCOCCNC(=O)COCCOCCNC(=O)CC[C@H](NC(=O)CCCCCCCCCCCCCCCCC(=O)O)C(=O)O)C(=O)N[C@@H](CCC(N)=O)C(=O)N[C@H](C(=O)N[C@@H](CC(C)C)C(=O)N[C@@H](CC(C)C)C(=O)N[C@@H](CCCCN)C(=O)N[C@@H](CCC(N)=O)C(=O)N[C@@H](CCC(=O)O)C(=O)N[C@@H](CCCNC(=N)N)C(=O)N[C@@H](CCC(N)=O)C(=O)N[C@@H](CCCCN)C(=O)N[C@@H](CCCCN)C(=O)N[C@@H](CCC(N)=O)C(=O)N[C@@H](CCCNC(=N)N)C(=O)N[C@@H](CCC(=O)O)C(=O)N[C@@H](CCCCN)C(=O)N[C@@H](C)C(=O)N[C@@H](CCCCN)C(=O)N[C@H](C(=O)N[C@@H](CC(N)=O)C(=O)N[C@@H](CCCCN)C(=O)N[C@@H](CCC(N)=O)C(=O)N[C@H](C(=O)N[C@@H](CC(C)C)C(=O)N[C@@H](C)C(=O)N[C@@H](CCC(N)=O)C(=O)N[C@H](C(N)=O)C(C)C)[C@@H](C)CC)[C@@H](C)O)[C@@H](C)CC)[C@@H](C)CC)C(C)C)C(C)C
B5: SEQ ID NO: 88 (peptide)
peptide: IVLSLDVPIKLK([AEEA-AEEA-γGlu-C18 diacid])QILLKQERQKKQREKAKTN[Aib]QILAQV-NH2
modifications: N-terminus assumed
SMILES: CC[C@H](C)[C@H](N)C(=O)N[C@H](C(=O)N[C@@H](CC(C)C)C(=O)N[C@@H](CO)C(=O)N[C@@H](CC(C)C)C(=O)N[C@@H](CC(=O)O)C(=O)N[C@H](C(=O)N1CCC[C@H]1C(=O)N[C@H](C(=O)N[C@@H](CCCCN)C(=O)N[C@@H](CC(C)C)C(=O)N[C@@H](CCCCNC(=O)COCCOCCNC(=O)COCCOCCNC(=O)CC[C@H](NC(=O)CCCCCCCCCCCCCCCCC(=O)O)C(=O)O)C(=O)N[C@@H](CCC(N)=O)C(=O)N[C@H](C(=O)N[C@@H](CC(C)C)C(=O)N[C@@H](CC(C)C)C(=O)N[C@@H](CCCCN)C(=O)N[C@@H](CCC(N)=O)C(=O)N[C@@H](CCC(=O)O)C(=O)N[C@@H](CCCNC(=N)N)C(=O)N[C@@H](CCC(N)=O)C(=O)N[C@@H](CCCCN)C(=O)N[C@@H](CCCCN)C(=O)N[C@@H](CCC(N)=O)C(=O)N[C@@H](CCCNC(=N)N)C(=O)N[C@@H](CCC(=O)O)C(=O)N[C@@H](CCCCN)C(=O)N[C@@H](C)C(=O)N[C@@H](CCCCN)C(=O)N[C@H](C(=O)N[C@@H](CC(N)=O)C(=O)NC(C)(C)C(=O)N[C@@H](CCC(N)=O)C(=O)N[C@H](C(=O)N[C@@H](CC(C)C)C(=O)N[C@@H](C)C(=O)N[C@@H](CCC(N)=O)C(=O)N[C@H](C(N)=O)C(C)C)[C@@H](C)CC)[C@@H](C)O)[C@@H](C)CC)[C@@H](C)CC)C(C)C)C(C)C
B6: SEQ ID NO: 89 (peptide)
peptide: IVLSLDVPIKLK([AEEA-AEEA-γGlu-C18 diacid])QILLKQERQKKQREQAKTN[Aib]QILAQV-NH2
modifications: N-terminus assumed
SMILES: CC[C@H](C)[C@H](N)C(=O)N[C@H](C(=O)N[C@@H](CC(C)C)C(=O)N[C@@H](CO)C(=O)N[C@@H](CC(C)C)C(=O)N[C@@H](CC(=O)O)C(=O)N[C@H](C(=O)N1CCC[C@H]1C(=O)N[C@H](C(=O)N[C@@H](CCCCN)C(=O)N[C@@H](CC(C)C)C(=O)N[C@@H](CCCCNC(=O)COCCOCCNC(=O)COCCOCCNC(=O)CC[C@H](NC(=O)CCCCCCCCCCCCCCCCC(=O)O)C(=O)O)C(=O)N[C@@H](CCC(N)=O)C(=O)N[C@H](C(=O)N[C@@H](CC(C)C)C(=O)N[C@@H](CC(C)C)C(=O)N[C@@H](CCCCN)C(=O)N[C@@H](CCC(N)=O)C(=O)N[C@@H](CCC(=O)O)C(=O)N[C@@H](CCCNC(=N)N)C(=O)N[C@@H](CCC(N)=O)C(=O)N[C@@H](CCCCN)C(=O)N[C@@H](CCCCN)C(=O)N[C@@H](CCC(N)=O)C(=O)N[C@@H](CCCNC(=N)N)C(=O)N[C@@H](CCC(=O)O)C(=O)N[C@@H](CCC(N)=O)C(=O)N[C@@H](C)C(=O)N[C@@H](CCCCN)C(=O)N[C@H](C(=O)N[C@@H](CC(N)=O)C(=O)NC(C)(C)C(=O)N[C@@H](CCC(N)=O)C(=O)N[C@H](C(=O)N[C@@H](CC(C)C)C(=O)N[C@@H](C)C(=O)N[C@@H](CCC(N)=O)C(=O)N[C@H](C(N)=O)C(C)C)[C@@H](C)CC)[C@@H](C)O)[C@@H](C)CC)[C@@H](C)CC)C(C)C)C(C)C

What follows are binders tested against human corticotropin-releasing factor 2α (CRF2 α receptor) (human), Q13324 (assay: cell-based or functional assay).
Sequence of human corticotropin-releasing factor 2α (CRF2 α receptor) (human), Q13324 (Q13324 20-411): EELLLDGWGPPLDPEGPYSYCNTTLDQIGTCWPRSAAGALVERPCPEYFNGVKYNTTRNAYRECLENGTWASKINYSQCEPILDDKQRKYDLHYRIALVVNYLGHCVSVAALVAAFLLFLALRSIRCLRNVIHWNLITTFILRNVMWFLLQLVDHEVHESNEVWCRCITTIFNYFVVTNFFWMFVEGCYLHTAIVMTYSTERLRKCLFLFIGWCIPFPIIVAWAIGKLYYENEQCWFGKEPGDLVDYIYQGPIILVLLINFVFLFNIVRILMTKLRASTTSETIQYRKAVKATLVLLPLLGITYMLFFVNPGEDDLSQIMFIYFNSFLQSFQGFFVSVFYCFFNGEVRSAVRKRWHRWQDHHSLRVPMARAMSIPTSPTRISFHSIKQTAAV

Row | Binder | EC50 [nM], 0% HSA [nM] | EC50 [nM], 0.1% HSA [nM]
1 | B1 | 0.16 | 0.18
2 | B2 | 0.1 | 3.58
3 | B3 | 0.11 | 5.7
4 | B4 | 0.23 | 16.2
5 | B5 | 0.68 | 25.7
6 | B6 | 0.3 | 15.6
